The text below walks through data of patent US20180155451A1 (published 2018).

Experiment [1] addresses T1, FcγRIIb (human, UniProt P31994 43-217).
T1 construct: extracellular domain; also called FcgRIIb; 2b
T1 sequence (looked up): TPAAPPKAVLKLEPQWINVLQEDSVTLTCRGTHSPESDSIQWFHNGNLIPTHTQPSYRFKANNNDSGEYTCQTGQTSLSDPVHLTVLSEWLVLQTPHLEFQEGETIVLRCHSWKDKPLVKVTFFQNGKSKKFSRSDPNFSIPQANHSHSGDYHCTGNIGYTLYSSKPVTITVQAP
In words: SPR (Biacore), antibody captured, FcγR as analyte; relative binding. On the procedure:
The heterodimerized antibodies He Abs in which one of the H chains was introduced with an alteration were assayed for their binding activities to each activating FcγR and inhibitory FcγR according to the method described in Example 4. […] The activating FcγRs in FIGS. 26, 27, 28, and 29 are FcγRIa, FcγRIIa (R), FcγRIIa (H), and FcγRIIIa, respectively.
Analysis of interaction between objective antibody and the FcγR was carried out using Biacore T100 (GE Healthcare). HBS-EP+ (GE Healthcare) was used as the running buffer, and the measurement temperature was set to 25° C. Chips produced by immobilizing the antigen peptide by the amine coupling method to a Series S Sencor Chip CM5 (GE Healthcare), or alternatively, chips produced by allowing preliminarily biotinylated antigen peptides to interact with and immobilize onto a Series S Sensor Chip SA (certified) (GE Healthcare) were used. Antibodies of interest were captured onto an antigen peptide-immobilized chip, and allowed to interact to each FcγR diluted with running buffer. To regenerate and repeatedly use the chip, the antibodies captured on the chip were washed off by reacting 10 mM glycine-HCl, pH 1.5.
(In general: SPR reads the build-up and loss of mass on a sensor chip optically.)

The target in experiment [2] is T2, FcγRIIb, extracellular domain with C-terminal His tag (human, UniProt P31994 43-217).
T2 construct: extracellular domain; Soluble receptor expressed in FreeStyle293 cells; analyte in Biacore; also called FcgRIIb; 2b; not shown: C-terminal His tag
T2 sequence (looked up): T1 sequence (looked up)
In words: SPR (Biacore), captured antibody, FcγR as analyte.

In experiment [3] the target is T3, FcγRIIa H (FcγRIIa, type H allotype, His at position 131), extracellular domain with C-terminal His tag (human, UniProt P12318 34-217).
T3 construct: extracellular domain; Soluble receptor expressed in FreeStyle293 cells; analyte in Biacore; also called FcgRIIa H; 2aH; not shown: C-terminal His tag
T3 sequence (looked up): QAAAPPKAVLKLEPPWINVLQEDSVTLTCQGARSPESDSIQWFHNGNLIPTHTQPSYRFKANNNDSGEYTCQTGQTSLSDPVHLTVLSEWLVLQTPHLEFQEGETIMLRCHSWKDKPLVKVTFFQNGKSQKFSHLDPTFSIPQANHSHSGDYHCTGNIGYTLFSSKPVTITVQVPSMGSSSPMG
In words: SPR (Biacore), captured antibody, FcγR as analyte.

The target in experiment [4] is T3, FcγRIIa H (FcγRIIa, type H allotype, …). In words: ratio of He/Con_2aH to He/Con_2b (FcγRIIa H over FcγRIIb), SPR.
The target of experiment [5] is T4, FcγRIIIa extracellular domain with C-terminal His tag (human, UniProt P08637 17-208).
T4 construct: extracellular domain; also called FcgRIIIa; 3a
In words: SPR, relative to GpH7-A5/GpH7-B3/GpL16-k0.

T4 sequence (P08637 17-208): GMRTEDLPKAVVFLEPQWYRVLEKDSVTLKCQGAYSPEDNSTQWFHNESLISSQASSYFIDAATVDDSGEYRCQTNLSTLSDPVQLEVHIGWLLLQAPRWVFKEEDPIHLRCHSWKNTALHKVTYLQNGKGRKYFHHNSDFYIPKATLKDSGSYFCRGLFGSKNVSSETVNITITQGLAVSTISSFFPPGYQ

B1: GpH7-A5/GpH7-B3 variant D265_15Y/GpL16-k0 (antibody, human IgG1, kappa)
heavy 1: not shown
heavy 2: not shown
light: DIVMTQSPLSLPVTPGEPASISCQASESLVHSNRNTYLHWYLQKPGQSPQLLIYKVSNRFSGVPDRFSGSGSGTDFTLKISRVEAEDVGVYYCSQNTHVPPTFGQGTKVEIERTVAAPSVFIFPPSDEQLKSGTASVVCLLNNFYPREAKVQWKVDNALQSGNSQESVTEQDSKDSTYSLSSTLTLSKADYEKHKVYACEVTHQGLSSPVTKSFNRGEC
notes: heterodimerized antibody, mutation in the GpH7-B3 chain only; also called He Ab
For B1, in experiment [1], the “He/Con_2b (IIb binding)” value is 0.6 % of GpH7-A5/GpH7-B3/GpL16-k0 (=100).

B2: GpH7-A5/GpH7-B3 variant D270_01G/GpL16-k0 (antibody, human IgG1, kappa)
heavy 1: not shown
heavy 2: not shown
light: B1 light
notes: Heterodimerized IgG1; mutation only in the GpH7-B3 chain; also called He Ab
In the case of B2, the He/Con_2b in experiment [2] was 30.5 relative, GpH7-A5/GpH7-B3/GpL16-k0 = 100. For the same molecule, in experiment [3], the He/Con_2aH is 52.5 relative, GpH7-A5/GpH7-B3/GpL16-k0 = 100. Further, the “He_2aH/2b (IIaH/IIb)” value in experiment [4] is 1.72.

B3: GpH7-A5/GpH7-B3 variant Q295_14T/GpL16-k0 (antibody, human IgG1, kappa)
heavy 1: not shown
heavy 2: not shown
light: B1 light
notes: heterodimerized IgG1, mutation in one H chain only; also called He Ab
For B3, the He/Con_3a in experiment [5] was 115 % of control (=100).

B4: GpH7-A5/GpH7-B3 variant D270_10E/GpL16-k0 (antibody, human IgG1, kappa)
heavy 1: not shown
heavy 2: not shown
light: B1 light
notes: as for B2
For B4, the He/Con_2b in experiment [2] is 76.5 relative, GpH7-A5/GpH7-B3/GpL16-k0 = 100. In experiment [3], the He/Con_2aH was 102 relative, GpH7-A5/GpH7-B3/GpL16-k0 = 100. The “He_2aH/2b (IIaH/IIb)” value in experiment [4] came out at 1.34.

B5: GpH7-A5/GpH7-B3 variant D270_15Y/GpL16-k0 (antibody, human IgG1, kappa)
heavy 1: not shown
heavy 2: not shown
light: B1 light
notes: as for B2
Regarding B5, the He/Con_2b in experiment [2] is 44.9 relative, GpH7-A5/GpH7-B3/GpL16-k0 = 100. Moreover, in experiment [3], the He/Con_2aH was 71.9 relative, GpH7-A5/GpH7-B3/GpL16-k0 = 100. For the same molecule, the “He_2aH/2b (IIaH/IIb)” value in experiment [4] came to 1.6.

B6: GpH7-A5/GpH7-B3 variant S239_09D/GpL16-k0 (antibody, human IgG1, kappa)
heavy 1: not shown
heavy 2: not shown
light: B1 light
notes: as for B3
For the molecule B6, in experiment [5], the He/Con_3a is 166 % of control (=100).

B7: GpH7-A5/GpH7-B3 variant V266_12R/GpL16-k0 (antibody, human IgG1, kappa)
heavy 1: not shown
heavy 2: not shown
light: B1 light
notes: as for B1
With B7, the “He/Con_2b (IIb binding)” value in experiment [1] is -1.1 % of GpH7-A5/GpH7-B3/GpL16-k0 (=100).

B8: GpH7-A5/GpH7-B3 variant S267_09D/GpL16-k0 (antibody, human IgG1, kappa)
heavy 1: not shown
heavy 2: not shown
light: B1 light
notes: as for B3
Turning to B8, in experiment [5], the He/Con_3a is 181 % of control (=100).

B9: GpH7-A5/GpH7-B3 variant D270_07I/GpL16-k0 (antibody, human IgG1, kappa)
heavy 1: not shown
heavy 2: not shown
light: B1 light
notes: as for B2
Regarding B9, in experiment [2], the He/Con_2b is 41.5 relative, GpH7-A5/GpH7-B3/GpL16-k0 = 100. Besides, the He/Con_2aH in experiment [3] was 64 relative, GpH7-A5/GpH7-B3/GpL16-k0 = 100. Moreover, in experiment [4], the “He_2aH/2b (IIaH/IIb)” value was 1.54.

B10: GpH7-A5/GpH7-B3 variant E269_04F/GpL16-k0 (antibody, human IgG1, kappa)
heavy 1: not shown
heavy 2: not shown
light: B1 light
notes: as for B2
Regarding B10, the He/Con_2b in experiment [2] was 45 relative, GpH7-A5/GpH7-B3/GpL16-k0 = 100. For the same molecule, the He/Con_2aH in experiment [3] was 68.5 relative, GpH7-A5/GpH7-B3/GpL16-k0 = 100. In addition, in experiment [4], the “He_2aH/2b (IIaH/IIb)” value came out at 1.52.

B11: GpH7-A5/GpH7-B3 variant D270_08L/GpL16-k0 (antibody, human IgG1, kappa)
heavy 1: not shown
heavy 2: not shown
light: B1 light
notes: as for B2
Take B11: in experiment [2], the He/Con_2b is 53.6 relative, GpH7-A5/GpH7-B3/GpL16-k0 = 100. Besides, the He/Con_2aH in experiment [3] is 75.8 relative, GpH7-A5/GpH7-B3/GpL16-k0 = 100. Moreover, the “He_2aH/2b (IIaH/IIb)” value in experiment [4] is 1.41.

B12: GpH7-A5/GpH7-B3 variant S337_09D/GpL16-k0 (antibody, human IgG1, kappa)
heavy 1: not shown
heavy 2: not shown
light: B1 light
notes: as for B3
Consider B12, for which the He/Con_3a in experiment [5] was 110 % of control (=100).

B13: GpH7-A5/GpH7-B3 variant D270_18N/GpL16-k0 (antibody, human IgG1, kappa)
heavy 1: not shown
heavy 2: not shown
light: B1 light
notes: as for B2
With B13, the He/Con_2b in experiment [2] was 40.3 relative, GpH7-A5/GpH7-B3/GpL16-k0 = 100. Moreover, the He/Con_2aH in experiment [3] was 62.5 relative, GpH7-A5/GpH7-B3/GpL16-k0 = 100. In addition, the “He_2aH/2b (IIaH/IIb)” value in experiment [4] stood at 1.55.

B14: GpH7-A5/GpH7-B3 variant T335_10E/GpL16-k0 (antibody, human IgG1, kappa)
heavy 1: not shown
heavy 2: not shown
light: B1 light
notes: as for B3
As for B14, the He/Con_3a in experiment [5] is 107 % of control (=100).

B15: GpH7-A5/GpH7-B3 variant D270_16H/GpL16-k0 (antibody, human IgG1, kappa)
heavy 1: not shown
heavy 2: not shown
light: B1 light
notes: as for B2
Take B15: the He/Con_2b in experiment [2] was 47.2 relative, GpH7-A5/GpH7-B3/GpL16-k0 = 100. Also, the He/Con_2aH in experiment [3] is 71.5 relative, GpH7-A5/GpH7-B3/GpL16-k0 = 100. Moreover, the “He_2aH/2b (IIaH/IIb)” value in experiment [4] was determined as 1.51.

B16: GpH7-A5/GpH7-B3 variant D270_13S/GpL16-k0 (antibody, human IgG1, kappa)
heavy 1: not shown
heavy 2: not shown
light: B1 light
notes: as for B2
As for B16, in experiment [2], the He/Con_2b was 44.2 relative, GpH7-A5/GpH7-B3/GpL16-k0 = 100. Besides, the He/Con_2aH in experiment [3] was 71.2 relative, GpH7-A5/GpH7-B3/GpL16-k0 = 100. Further, the “He_2aH/2b (IIaH/IIb)” value in experiment [4] stood at 1.61.
